Experimental findings from patent US20230263832A1, “TARGETED DRUG DELIVERY TO SITES OF INTRAVASCULAR OCCLUSION” (Children's Medical Center Corporation, priority 2020, published 2023) are described below.

The data set has as its system RBC aggregates in SCD mouse liver. The data set can be described thus: TNFα-induced vaso-occlusion in SCD mouse liver (LaSC, 3 parameters). The class given is in vivo. Particulars: SS mice, TNFα 1 μg/mouse i.p. 1 h. The protocol: FIG. 12: Parameters of RBC aggregates were determined to quantitate vaso-occlusion in SCD mouse liver. SCD mice were injected with TNFα (1 μg/mouse; 1 h) to induce inflammatory vaso-occlusion, followed by CO2 euthanasia and PBS perfusion to flush unbound RBCs in the vasculature. The livers were harvested and fixed by PLP fixative, followed by cryosectioning and immunofluorescent staining with antibodies against Ter119 (for RBC marker), Endoglin (for sinusoidal vasculature), S100A8 (for neutrophils), and DAPI (for nuclei). Stained slides with fluorescent dye-labeled secondary antibodies were scanned on laser scan cytometry (LaSC), followed by quantitative imaging analysis (iCys software) to quantitate the # of RBC aggregates that are larger than 100 μm^2, total area of RBC aggregates, the # neutrophil-containing RBC aggregates by iCys software. Arrows indicate the neutrophil-containing RBC aggregate in liver sinusoid.
SCD SS and control AA mice were injected with or without TNFα (1 μg/mouse; 1 h) to induce inflammatory vaso-occlusion, followed by CO2 euthanasia and PBS perfusion to flush unbound RBCs in the vasculature. Immunofluorescent staining of liver cryosections was performed as described in FIG. 12 to produce LaSC images, which were subjected to quantitative imaging analysis of RBC aggregates for 3 parameters in SCD mouse livers (see FIG. 14).
From FIG. 13 LaSC scanning, cytometric events are defined by automatic image segmentation on specific channels by iCys software to quantitate # of RBC aggregate, total area of RBC aggregates, # of neutrophil-containing RBC aggregates by iCys software (Park et al. 2020). […]
(FIG. 15A) Representative images show the increased RBC aggregates upon TNFα injection in SCD mouse liver. (FIG. 15B) This was followed by quantitative imaging analysis (iCys software) to quantitate # of RBC aggregate, total area of RBC aggregates, # of neutrophil-containing RBC aggregates by iCys software. […]

As to TNFα, the “increase of # of RBC aggregates” value was 51%, the “increase of # of neutrophil-containing RBC aggregates” value is given as 182% and the “increase of total area of RBC aggregates” value is 59%.
